Assays:
Assay in all cases: cell-based or functional assay
[1] = molecular target: HIV-1 Env of isolate 93MW959 (HIV-1)
[2] = molecular target: HIV-1 Env of isolate MGRM-Chronic-B-010 (HIV-1)
[3] = molecular target: HIV-1 Env of isolate MGRM-Chronic-B-012 (HIV-1)
[4] = molecular target: HIV-1 Env of isolate MGRM-F1-010 (HIV-1)
[5] = molecular target: HIV-1 Env of isolate MGRM-F1-004 (HIV-1)
[6] = molecular target: HIV-1 Env of isolate MGRM-Chronic-B-018 (HIV-1)
[7] = molecular target: HIV-1 Env of isolate MGRM-D-026 (HIV-1)
[8] = molecular target: HIV-1 Env of isolate MGRM-D-019 (HIV-1)
[9] = molecular target: HIV-1 Env of isolate PVO.4 (HIV-1)
[10] = molecular target: HIV-1 Env of isolate MGRM-Chronic-B-011 (HIV-1)
[11] = molecular target: HIV-1 Env of isolate MGRM-F1-008 (HIV-1)
[12] = molecular target: HIV-1 Env of isolate SC422661.8 (HIV-1)
[13] = molecular target: HIV-1 Env of isolate MGRM-Chronic-B-017 (HIV-1)
[14] = molecular target: HIV-1 Env of isolate MGRM-D-021 (HIV-1)
[15] = molecular target: HIV-1 Env of isolate MGRM-D-012 (HIV-1)
[16] = molecular target: HIV-1 Env of isolate VLGCB3 (HIV-1)
[17] = molecular target: HIV-1 Env of isolate MGRM-Chronic-B-024 (HIV-1)
[18] = molecular target: HIV-1 Env of isolate MGRM-D-011 (HIV-1)
[19] = molecular target: HIV-1 Env of isolate MGRM-F1-018 (HIV-1)
[20] = molecular target: HIV-1 Env of isolate TRO.11 (HIV-1)
[21] = molecular target: HIV-1 Env of isolate 98IN022 (HIV-1)
[22] = molecular target: HIV-1 Env of isolate 97ZA012 (HIV-1)
[23] = molecular target: HIV-1 Env of isolate MGRM-F1-015 (HIV-1)
[24] = molecular target: HIV-1 Env of isolate MGRM-D-013 (HIV-1)
[25] = molecular target: HIV-1 Env of isolate TRJ04551.58 (HIV-1)
[26] = molecular target: HIV-1 Env of isolate MGRM-F1-012 (HIV-1)
[27] = molecular target: HIV-1 Env of isolate MGRM-Chronic-B-023 (HIV-1)
[28] = molecular target: HIV-1 Env of isolate MGRM-F1-006 (HIV-1)
[29] = molecular target: HIV-1 Env of isolate NL43 (HIV-1)
[30] = molecular target: HIV-1 Env of isolate MGRM-F1-020 (HIV-1)
[31] = molecular target: HIV-1 Env of isolate MGRM-D-022 (HIV-1)
[32] = molecular target: HIV-1 Env of isolate MGRM-D-024 (HIV-1)
[33] = molecular target: HIV-1 Env of isolate MGRM-D-014 (HIV-1)
[34] = molecular target: HIV-1 Env of isolate MGRM-D-029 (HIV-1)
[35] = molecular target: HIV-1 Env of isolate MGRM-Chronic-B-020 (HIV-1)
[36] = molecular target: HIV-1 Env of isolate SF162 (HIV-1) (UniProt P19550)
[37] = molecular target: HIV-1 Env of isolate MGRM-D-020 (HIV-1)
[38] = molecular target: HIV-1 Env of isolate MGRM-F1-022 (HIV-1)
[39] = molecular target: HIV-1 Env of isolate MGRM-D-028 (HIV-1)
[40] = molecular target: HIV-1 Env of isolate MGRM-F1-017 (HIV-1)
[41] = molecular target: HIV-1 Env of isolate MGRM-D-018 (HIV-1)
[42] = molecular target: HIV-1 Env of isolate 93IN905 (HIV-1)
[43] = molecular target: HIV-1 Env of isolate MGRM-F1-013 (HIV-1)
[44] = molecular target: HIV-1 Env of isolate JRCSF (HIV-1) (UniProt P20871)
[45] = molecular target: HIV-1 Env of isolate MGRM-F1-014 (HIV-1)
[46] = molecular target: HIV-1 Env of isolate MGRM-F1-023 (HIV-1)
[47] = molecular target: HIV-1 Env of isolate MGRM-F1-021 (HIV-1)
[48] = molecular target: HIV-1 Env of isolate MGRM-D-016 (HIV-1)
[49] = molecular target: HIV-1 Env of isolate THR0.18 (HIV-1)
[50] = molecular target: HIV-1 Env of isolate MGRM-F1-016 (HIV-1)
[51] = molecular target: HIV-1 Env of isolate QH0692.42 (HIV-1)

Sequence of PGT-141 (antibody) (VH): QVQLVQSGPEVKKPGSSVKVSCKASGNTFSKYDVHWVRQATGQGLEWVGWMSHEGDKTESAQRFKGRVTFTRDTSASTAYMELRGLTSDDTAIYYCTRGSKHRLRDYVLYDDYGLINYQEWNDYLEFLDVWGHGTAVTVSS
Sequence of PGT-141 (antibody) (VL): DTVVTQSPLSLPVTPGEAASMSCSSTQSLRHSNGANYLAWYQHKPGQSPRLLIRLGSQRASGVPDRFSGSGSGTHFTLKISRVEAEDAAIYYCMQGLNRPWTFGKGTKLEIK
Sequence of PGT-143 (antibody) (VH): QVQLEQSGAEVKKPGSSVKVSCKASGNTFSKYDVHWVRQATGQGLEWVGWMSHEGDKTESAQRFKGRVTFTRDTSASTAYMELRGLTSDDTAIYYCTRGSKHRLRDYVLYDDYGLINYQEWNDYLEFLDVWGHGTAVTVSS
Sequence of PGT-143 (antibody) (VL): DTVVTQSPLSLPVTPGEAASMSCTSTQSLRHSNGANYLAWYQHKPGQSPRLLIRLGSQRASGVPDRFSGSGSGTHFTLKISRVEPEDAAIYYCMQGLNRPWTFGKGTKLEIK
Sequence of PGT-142 (antibody) (VH): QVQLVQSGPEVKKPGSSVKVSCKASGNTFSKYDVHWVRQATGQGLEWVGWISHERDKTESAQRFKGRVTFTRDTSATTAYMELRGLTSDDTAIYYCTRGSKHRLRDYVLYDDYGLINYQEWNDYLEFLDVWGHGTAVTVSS

PGT-141 (antibody)
neutralization IC50 [1]: 0.003 µg/mL
neutralization IC50 [2]: > 50 µg/mL
neutralization IC50 [3]: > 50 µg/mL
IC50, pseudovirus neutralization [4]: > 50 µg/mL
IC50, pseudovirus neutralization [5]: 0.021 µg/mL
neutralization IC50 [6]: 0.572 µg/mL
IC50, pseudovirus neutralization [7]: 32.5 µg/mL
IC50, pseudovirus neutralization [8]: 1.66 µg/mL
neutralization IC50 [9]: 0.113 µg/mL
neutralization IC50 [10]: 2.24 µg/mL
IC50, pseudovirus neutralization [11]: 0.193 µg/mL
neutralization IC50 [12]: 1.66 µg/mL
neutralization IC50 [13]: 0.147 µg/mL
IC50, pseudovirus neutralization [14]: > 50 µg/mL
IC50, pseudovirus neutralization [15]: > 50 µg/mL
neutralization IC50 [16]: > 50 µg/mL
neutralization IC50 [17]: 0.011 µg/mL
IC50, pseudovirus neutralization [18]: > 50 µg/mL
IC50, pseudovirus neutralization [19]: 0.785 µg/mL
neutralization IC50 [20]: 0.383 µg/mL
neutralization IC50 [21]: 0.001 µg/mL
neutralization IC50 [22]: > 50 µg/mL
IC50, pseudovirus neutralization [23]: > 50 µg/mL
IC50, pseudovirus neutralization [24]: 0.179 µg/mL
neutralization IC50 [25]: > 50 µg/mL
IC50, pseudovirus neutralization [26]: > 50 µg/mL
neutralization IC50 [27]: 0.318 µg/mL
IC50, pseudovirus neutralization [28]: 8.99 µg/mL
neutralization IC50 [29]: > 50 µg/mL
IC50, pseudovirus neutralization [30]: 1.15 µg/mL
IC50, pseudovirus neutralization [31]: > 50 µg/mL
IC50, pseudovirus neutralization [32]: > 50 µg/mL
IC50, pseudovirus neutralization [33]: 0.01 µg/mL
IC50, pseudovirus neutralization [34]: 0.057 µg/mL
neutralization IC50 [35]: > 50 µg/mL
neutralization IC50 [36]: > 50 µg/mL
IC50, pseudovirus neutralization [37]: > 50 µg/mL
IC50, pseudovirus neutralization [38]: 0.114 µg/mL
IC50, pseudovirus neutralization [39]: < 50 µg/mL
IC50, pseudovirus neutralization [40]: 30.8 µg/mL
IC50, pseudovirus neutralization [41]: > 50 µg/mL
neutralization IC50 [42]: 0.001 µg/mL
IC50, pseudovirus neutralization [43]: 0.043 µg/mL
neutralization IC50 [44]: 0.009 µg/mL
IC50, pseudovirus neutralization [45]: 0.001 µg/mL
IC50, pseudovirus neutralization [46]: 0.307 µg/mL
IC50, pseudovirus neutralization [47]: > 50 µg/mL
IC50, pseudovirus neutralization [48]: > 50 µg/mL
neutralization IC50 [49]: 0.007 µg/mL
IC50, pseudovirus neutralization [50]: > 50 µg/mL
neutralization IC50 [51]: > 50 µg/mL

PGT-142 (antibody)
neutralization IC50 [1]: 0.001 µg/mL
neutralization IC50 [2]: > 50 µg/mL
neutralization IC50 [3]: > 50 µg/mL
IC50, pseudovirus neutralization [4]: > 50 µg/mL
IC50, pseudovirus neutralization [5]: 0.013 µg/mL
neutralization IC50 [6]: 0.323 µg/mL
IC50, pseudovirus neutralization [7]: 12.5 µg/mL
IC50, pseudovirus neutralization [8]: 0.155 µg/mL
neutralization IC50 [9]: 0.066 µg/mL
neutralization IC50 [10]: 0.994 µg/mL
IC50, pseudovirus neutralization [11]: 0.124 µg/mL
neutralization IC50 [12]: 3.15 µg/mL
neutralization IC50 [13]: 0.076 µg/mL
IC50, pseudovirus neutralization [14]: > 50 µg/mL
IC50, pseudovirus neutralization [15]: > 50 µg/mL
neutralization IC50 [16]: > 50 µg/mL
neutralization IC50 [17]: 0.005 µg/mL
IC50, pseudovirus neutralization [18]: > 50 µg/mL
IC50, pseudovirus neutralization [19]: 0.404 µg/mL
neutralization IC50 [20]: 0.27 µg/mL
neutralization IC50 [21]: 0.001 µg/mL
neutralization IC50 [22]: > 50 µg/mL
IC50, pseudovirus neutralization [23]: > 50 µg/mL
IC50, pseudovirus neutralization [24]: 0.221 µg/mL
neutralization IC50 [25]: > 50 µg/mL
IC50, pseudovirus neutralization [26]: > 50 µg/mL
neutralization IC50 [27]: 0.486 µg/mL
IC50, pseudovirus neutralization [28]: 12.9 µg/mL
neutralization IC50 [29]: > 50 µg/mL
IC50, pseudovirus neutralization [30]: 0.824 µg/mL
IC50, pseudovirus neutralization [31]: > 50 µg/mL
IC50, pseudovirus neutralization [32]: > 50 µg/mL
IC50, pseudovirus neutralization [33]: 0.005 µg/mL
IC50, pseudovirus neutralization [34]: 0.192 µg/mL
neutralization IC50 [35]: > 50 µg/mL
neutralization IC50 [36]: > 50 µg/mL
IC50, pseudovirus neutralization [37]: > 50 µg/mL
IC50, pseudovirus neutralization [38]: 0.04 µg/mL
IC50, pseudovirus neutralization [39]: > 50 µg/mL
IC50, pseudovirus neutralization [40]: 23.5 µg/mL
IC50, pseudovirus neutralization [41]: > 50 µg/mL
neutralization IC50 [42]: 0.001 µg/mL
IC50, pseudovirus neutralization [43]: 0.023 µg/mL
neutralization IC50 [44]: 0.01 µg/mL
IC50, pseudovirus neutralization [45]: 0.001 µg/mL
IC50, pseudovirus neutralization [46]: 0.602 µg/mL
IC50, pseudovirus neutralization [47]: > 50 µg/mL
IC50, pseudovirus neutralization [48]: > 50 µg/mL
neutralization IC50 [49]: 0.012 µg/mL
IC50, pseudovirus neutralization [50]: > 50 µg/mL
neutralization IC50 [51]: > 50 µg/mL

PGT-143 (antibody)
neutralization IC50 [1]: 0.002 µg/mL
neutralization IC50 [2]: > 50 µg/mL
neutralization IC50 [3]: > 50 µg/mL
IC50, pseudovirus neutralization [4]: > 50 µg/mL
IC50, pseudovirus neutralization [5]: 0.036 µg/mL
neutralization IC50 [6]: 0.377 µg/mL
IC50, pseudovirus neutralization [7]: 44.6 µg/mL
IC50, pseudovirus neutralization [8]: 0.277 µg/mL
neutralization IC50 [9]: 0.162 µg/mL
neutralization IC50 [10]: 1.56 µg/mL
IC50, pseudovirus neutralization [11]: 0.189 µg/mL
neutralization IC50 [12]: 2.02 µg/mL
neutralization IC50 [13]: 0.145 µg/mL
IC50, pseudovirus neutralization [14]: > 50 µg/mL
IC50, pseudovirus neutralization [15]: > 50 µg/mL
neutralization IC50 [16]: > 50 µg/mL
neutralization IC50 [17]: 0.01 µg/mL
IC50, pseudovirus neutralization [18]: > 50 µg/mL
IC50, pseudovirus neutralization [19]: 0.701 µg/mL
neutralization IC50 [20]: 0.219 µg/mL
neutralization IC50 [21]: 0.001 µg/mL
neutralization IC50 [22]: > 50 µg/mL
IC50, pseudovirus neutralization [23]: > 50 µg/mL
IC50, pseudovirus neutralization [24]: 0.386 µg/mL
neutralization IC50 [25]: > 50 µg/mL
IC50, pseudovirus neutralization [26]: > 50 µg/mL
neutralization IC50 [27]: 0.236 µg/mL
IC50, pseudovirus neutralization [28]: 12.3 µg/mL
neutralization IC50 [29]: > 50 µg/mL
IC50, pseudovirus neutralization [30]: 0.98 µg/mL
IC50, pseudovirus neutralization [31]: > 50 µg/mL
IC50, pseudovirus neutralization [32]: > 50 µg/mL
IC50, pseudovirus neutralization [33]: 0.009 µg/mL
IC50, pseudovirus neutralization [34]: 0.2 µg/mL
neutralization IC50 [35]: > 50 µg/mL
neutralization IC50 [36]: > 50 µg/mL
IC50, pseudovirus neutralization [37]: > 50 µg/mL
IC50, pseudovirus neutralization [38]: 0.082 µg/mL
IC50, pseudovirus neutralization [39]: > 50 µg/mL
IC50, pseudovirus neutralization [40]: 26.3 µg/mL
IC50, pseudovirus neutralization [41]: > 50 µg/mL
neutralization IC50 [42]: 0.002 µg/mL
IC50, pseudovirus neutralization [43]: 0.013 µg/mL
neutralization IC50 [44]: 0.007 µg/mL
IC50, pseudovirus neutralization [45]: 0.001 µg/mL
IC50, pseudovirus neutralization [46]: 0.972 µg/mL
IC50, pseudovirus neutralization [47]: > 50 µg/mL
IC50, pseudovirus neutralization [48]: > 50 µg/mL
neutralization IC50 [49]: 0.016 µg/mL
IC50, pseudovirus neutralization [50]: > 50 µg/mL
neutralization IC50 [51]: > 50 µg/mL

Source: patent US20200024330A1
